Experimental data from patent publication US20040023858A1, “Antifungal combination therapy” (priority 2000, published 2004).

B1: G-CSF: granulocyte colony stimulating factor, stimulates the production of white blood cells (protein, UniProt P09919 31-207, looked up)
Granulocyte …: TPLGPASSLPQSFLLKCLEQVRKIQGDGAALQEKLVSECATYKLCHPEELVLLGHSLGIPWAPLSSCPSQALQLAGCLSQLHSGLFLYQGLLQALEGISPELGPTLDTLQLDVADFATTIWQQMEELGMAPALQPTQGAMPAFASAFQRRAGGVLVASHLQSFLEVSYRVLRHLAQP

System: Candida albicans FP633
Assay: Survival of neutropenic mice with disseminated candidiasis (G-CSF and Test Compound, alone and combined)
Type: in vivo, ICR mice
Settings: C. albicans, day 6 after infection
Experimental: Disseminated candidiasis were induced in ICR mice by the intravenous inoculation of 0.2 ml of cell suspension of Candida albicans FP633 via their lateral tail veins. Cyclophosphamide was administered intraperitoneally at 200 mg/kg 4 days before and 1 day after infection. G-CSF was administered intraperitoneally once daily for 5 days starting at 3 days before infection. Test Compound was administered once daily for 4 days starting at 1 hour after infection by intravenous injection. The survival rate (%) was calculated at 6 days after infection.
1) Survival rate of neutropenic mice infected with C. albicans on day 6 after infection

| Molecule | Survival rate (Test Compound 0.2 mg/kg i.v. once daily for 4 days, G-CSF 0 μg/kg, cyclophosphamide-treated neutropenic ICR mice) | Survival rate (G-CSF 2.5 μg/kg i.p. once daily for 5 days, Test Compound 0 mg/kg, neutropenic ICR mice) | Survival rate (G-CSF 5 μg/kg i.p. once daily for 5 days, Test Compound 0 mg/kg, neutropenic ICR mice) | Survival rate (G-CSF 10 μg/kg i.p. once daily for 5 days, Test Compound 0 mg/kg, neutropenic ICR mice) |
| --- | --- | --- | --- | --- |
| CCCCCOc1ccc(-c2cc(-c3ccc(C(=O)NC4CC(O)C(O)NC(=O)C5C(O)C(C)CN5C(=O)C(C(O)CC(N)=O)NC(=O)C(C(O)C(O)c5ccc(O)c(OS(=O)(=O)[O-])c5)NC(=O)C5CC(O)CN5C(=O)C(C(C)O)NC4=O)cc3)no2)cc1.[Na+] (stereo not shown) [Test Compound] | 25% |  |  |  |
| B1 |  | 0% | 25% | 50% |
